Experimental data taken from IntAct's records for PubMed 18067539.

B1: DNA-binding transcriptional repressor Mlc (Escherichia coli (strain K12)), P50456 (parent)
chain: MVAENQPGHIDQIKQTNAGAVYRLIDQLGPVSRIDLSRLAQLAPASITKIVREMLEAHLVQELEIKEAGNRGRPAVGLVVETEAWHYLSLRISRGEIFLALRDLSSKLVVEESQELALKDDLPLLDRIISHIDQFFIRHQKKLERLTSIAITLPGIIDTENGIVHRMPFYEDVKEMPLGEALEQHTGVPVYIQHDISAWTMAEALFGASRGARDVIQVVIDHNVGAGVITDGHLLHAGSSSLVEIGHTQVDPYGKRCYCGNHGCLETIASVDSILELAQLRLNQSMSSMLHGQPLTVDSLCQAALRGDLLAKDIITGVGAHVGRILAIMVNLFNPQKILIGSPLSKAADILFPVISDSIRQQALPAYSQHISVESTQFSNQGTMAGAALVKDAMYNGSLLIRLLQG
partner: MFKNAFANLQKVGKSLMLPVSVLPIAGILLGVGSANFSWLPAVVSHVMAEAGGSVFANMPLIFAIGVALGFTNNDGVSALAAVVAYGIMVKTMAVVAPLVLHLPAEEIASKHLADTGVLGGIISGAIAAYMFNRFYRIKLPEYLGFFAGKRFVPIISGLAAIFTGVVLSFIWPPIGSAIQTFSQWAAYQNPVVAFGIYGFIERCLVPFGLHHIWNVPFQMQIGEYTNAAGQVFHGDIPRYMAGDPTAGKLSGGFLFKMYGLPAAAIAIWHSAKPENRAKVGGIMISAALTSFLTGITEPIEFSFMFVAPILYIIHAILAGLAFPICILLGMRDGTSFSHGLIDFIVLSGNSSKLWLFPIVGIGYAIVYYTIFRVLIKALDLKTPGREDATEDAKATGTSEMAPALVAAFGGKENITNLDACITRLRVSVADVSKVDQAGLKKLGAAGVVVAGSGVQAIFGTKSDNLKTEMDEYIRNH

Variants of: B1
Conditions: with ptgcb_ecoli ptsG

Row | Variant | effect of a mutation on the interaction
1 | G406A | decreasing interaction strength
